In patent US20260069689A1:

Tests used:
[1] = target: full-length SARS-CoV-2 spike protein (Wuhan-Hu-1) on Jurkat/hCD20 cells (SARS-CoV-2) (UniProt P0DTC2); assay: cell-based or functional assay
[2] = target: T1, human CD20 on Jurkat cells (human) (UniProt P11836); assay: cell-based or functional assay
T1 sequence: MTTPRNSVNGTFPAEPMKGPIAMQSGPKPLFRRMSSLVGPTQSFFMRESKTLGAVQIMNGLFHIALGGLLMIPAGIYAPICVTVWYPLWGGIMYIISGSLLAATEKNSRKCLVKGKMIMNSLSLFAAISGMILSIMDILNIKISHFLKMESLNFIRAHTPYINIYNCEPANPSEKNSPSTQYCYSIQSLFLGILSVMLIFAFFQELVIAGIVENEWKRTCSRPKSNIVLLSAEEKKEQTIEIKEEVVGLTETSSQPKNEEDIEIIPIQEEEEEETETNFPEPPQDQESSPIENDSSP

hACE-2-10His (human) = hACE-2-10His (human) (UniProt Q9BYF1); assay: ELISA, hACE-2-10His coated on the plate
[3] = target: human FcγR3a 176Val allotype receptor (human) (UniProt P08637); assay: cell-based or functional assay

Row | Substance | Max ADCP (%), MDM donor #1, Jurkat/hCD20/SARS-CoV-2 S FL cells [1] [%] | Max ADCP (%), MDM donor #2, Jurkat/hCD20/SARS-CoV-2 S FL cells [1] [%] | Max cytotoxicity (%), ADCC, NK donor #1, Jurkat/hCD20/SARS-CoV-2 S FL cells [1] [%] | Max cytotoxicity (%), ADCC, NK donor #2, Jurkat/hCD20/SARS-CoV-2 S FL cells [1] [%] | Max cytotoxicity (%), ADCC, NK donor #3, Jurkat/hCD20/SARS-CoV-2 S FL cells [1] [%] | Max ADCP (%), MDM donor #1, Jurkat/hCD20 cells [2] [%] | Max ADCP (%), MDM donor #2, Jurkat/hCD20 cells [2] [%] | Max cytotoxicity (%), ADCC, NK donor #1, Jurkat/hCD20 cells [2] [%] | Max cytotoxicity (%), ADCC, NK donor #2, Jurkat/hCD20 cells [2] [%] | Max cytotoxicity (%), ADCC, NK donor #3, Jurkat/hCD20 cells [2] [%] | EC50 (M) of ADCC, NK donor #3, Jurkat/hCD20/SARS-CoV-2 S FL cells [1] [M] | EC50 (M) of ADCP, MDM donor #1, Jurkat/hCD20/SARS-CoV-2 S FL cells [1] [M] | EC50 (M) of ADCP, MDM donor #2, Jurkat/hCD20/SARS-CoV-2 S FL cells [1] [M] | EC50 [M] of ADCP, macrophages, Jurkat/hCD20/SARS-CoV-2 spike cells [1] [M] | Max % ADCP, macrophages, Jurkat/hCD20/SARS-CoV-2 spike cells [1] [%] | EC50 (M), Jurkat/CD20/spike [3] [M] | other results
1 | IgG1 isotype control (antibody) | 13.1 | 9.6 | 1.8 | 0 | 0 | 16.9 | 14.6 | 0.7 | 6.4 | 0.5 |  |  |  |  |  |  | Max cytotoxicity (%), ADCC, pooled primary NK cells, Jurkat/hCD20 cells [2]: 0.6%
2 | SARS-CoV-2 RBD.mmh |  |  |  |  |  |  |  |  |  |  |  |  |  |  |  |  | EC50 (hACE-2-10His (human)): 0.3 nM
3 | casirivimab + imdevimab | 49.5 | 48.2 | 1.6 | 4.1 | 15.4 |  |  |  |  |  | 3.6e-11 | 1.2e-10 | 5.78e-11 |  |  |  | 
4 | mAb10933 (antibody) | 28.3 | 28.6 | 1.4 | 5 | 11.1 | 14 | 11.5 | 4.7 | 3.6 | 1.2 | 4.89e-11 | 9.7e-12 | 2.23e-11 | 3.88e-11 | 33.1 | 6.47e-10 | Fold induction, Jurkat CD20 [3]: 1.1 fold; Fold induction, Jurkat/CD20/spike [3]: 2.9 fold
5 | mAb10987 (antibody) | 32.3 | 30.4 | 8.1 | 10.5 | 26.6 | 14.8 | 10.7 | 3.9 | 1.9 |  | 6.44e-11 | 2.91e-11 | 1.98e-11 | 3.19e-11 | 36.3 | 4.71e-10 | EC50 (M) of ADCC, NK donor #1, Jurkat/hCD20/SARS-CoV-2 S FL cells [1]: 7.42e-10 M; EC50 (M) of ADCC, NK donor #2, Jurkat/hCD20/SARS-CoV-2 S FL cells [1]: 5.05e-09 M
